In patent publication US7985736B2, “High throughput screen utilizing newly discovered intramolecular neuronal calcium channel interactions to discover new analgesics” (The John Hopkins University, priority 2004, dated 2011):
Where “and” joins values, the source holds several entries; their conditions need not be identical. Equal entries are not always repeated.

B1: NTB: NH3 terminus of N-type channel α1B subunit, residues 1-95, expressed as free peptide (SEQ ID NO.: 1) (protein, listed as Homo sapiens)
chain: MVRFGDELGGRYGGPGGGERARGGGAGGAGGPGPGGLQPGQRVLYKQSIAQRARTMALYNPIPVKQNCFTVNRSLFVFSEDNVVRKYAKRITEWP

Biological target: T1, N-type (α1B) Ca2+ channels (Homo sapiens, UniProt Q00975)
T1 construct: transferred by EcoRI and Bgl II sites into the full-length α1B construct; expressed in transfected cells; host or cells: HEK293
Assay: Whole-cell G/Q analysis and prepulse facilitation of recombinant N-type channels coexpressed with peptide in HEK293 cells
Type: cell-based
Conditions: for Effect on G/Q slope (Gmax-Qmax relation), with Gβγ: peptide coexpressed with channels and Gβγ, Gmax after 100 mV prepulse
Description: FIG. 3A illustrates an approach for N-type channels without Gβγ coexpression. Exemplar currents activated quickly and were barely facilitated by strong prepulse depolarization (FIG. 3A, left). The slight residual prepulse facilitation reflects basal endogenous Gβγ activation. To estimate open probability, two intermediary parameters were specified. First, to gauge the number of channels in a cell (Nchannel), the channel gating current at the reversal potential for ionic current were isolated (FIG. 3A, middle left) (Jones et al., 1999). The area under this current yields the maximal gating charge Qmax, where Qmax=Nchannel×qmax, and qmax is the maximal gating charge per channel. Second, Gmax for a given cell, the maximal ionic current conductance determined as the slope of the peak current-voltage relation at depolarized potentials were determined (FIG. 3A, middle right, line). Here and throughout, current-voltage relations were determined after a 100 mV prepulse, which transiently relieves all G protein inhibition (Colecraft et al., 2000), thus eliminating these inhibitory effects in the estimate of Gmax. Accordingly, Gmax=Nchannel×Po,max×g, where Po,max is the maximal channel open probability at saturating de-polarization, and g is the conductance of a single open channel. In combination, then, a plot of Gmax versus Qmax for multiple cells ([…]) would describe a linear relation with slope equal to Po,max×g/qmax. Because g and qmax are unchanged by G protein modulation (Colecraft et al., 2001; Jones et al., 1997; Patil et al., 1996), this slope (G/Q=0.44±0.03 nS/fC) is proportional to Po,max . . . FIG. 3B documents the supporting results for N-type channels coexpressed with Gβγ. Gmax determined after prepulse de-polarization, when plotted against Qmax, specifies an identical slope to that without Gβγ (FIG. 3B, right, G/Q=0.43±0.04 nS/fC). […] Free NTB peptide with α1B channels. Initially, an NTB-CFP peptide was employed to visually confirm expression was coexpressed. […] By contrast, coexpressing channels with NTB-CFP and Gβγ produced remarkable effects (FIG. 3D). […] More telling were small ionic current amplitudes despite gating current magnitudes on par with controls (FIG. 3D, middle panels). Consequently, there was a significant ^w6-fold depression of the Gmax-Qmax plot (FIG. 3D, right). If NTB-CFP were simply chelating Gβγ (FIG. 2C), the G/Q slope would be unchanged from control. Instead, the suppression of G/Q indicates constitutive inhibition of channel opening.
Cells were transiently transfected and cultured in 10 cm plates (Brody et al., 1997). For 2+Ca^2+ channels, 8 μg was used of each of cDNAs of the desired a1, rat brain β2a (Perez-Reyes et al., 1992), and rat brain a^28 (Tomlinson et al., 1993) subunits; along with 2 μg T-antigen cDNA. N-type α1B, human origin (NM000718); L-type α1C, rabbit (Wei et al., 1991) (X15539). Gβγ coexpressed with 4 μg each of Gβ1 (Sugimoto et al., 1985) and Gγ2 (Gautam et al., 1990). For coexpression of N-terminal peptides, channel subunit cDNA reduced to 6 μg, while adding 14 μg peptide cDNA. For receptor experiments, 0.5 μg cDNA for m2R (below) applied with other cDNAs.
Whole-cell current records were made with Axopatch 200B (Axon Instruments, Calif.), 1-3 days posttransfection. Pipets, 1.5-3 MΩ before 60-75% series resistance compensation. Internal solution: 135 mM CsMeSO4, 5 mM CsCl, 10 mM EGTA, 10 mM HEPES, 1 mM MgCl2, and 4 mM MgATP. External solution: 150 mM TEAMeSO4, 10 mM HEPES, 2 mM CaCl2, and 1 mM MgCl2. During constitutive inhibition (or as noted for some chimeras), 20 mM BaCl2 was substituted for 2 mM CaCl2, and the resulting solution was diluted 1.08×. To compare across external solutions, a conversion factor of 3.18 was used. Currents and conductances with 20 mM Ba^2+ were thus scaled×1/3.18 to facilitate uniform comparison of values, as if all data had been collected with 2 mM Ca^2+. When applied, conversion is denoted by asterisk (*). […]

T1 sequence (Q00975 whole entry, other chains not shown): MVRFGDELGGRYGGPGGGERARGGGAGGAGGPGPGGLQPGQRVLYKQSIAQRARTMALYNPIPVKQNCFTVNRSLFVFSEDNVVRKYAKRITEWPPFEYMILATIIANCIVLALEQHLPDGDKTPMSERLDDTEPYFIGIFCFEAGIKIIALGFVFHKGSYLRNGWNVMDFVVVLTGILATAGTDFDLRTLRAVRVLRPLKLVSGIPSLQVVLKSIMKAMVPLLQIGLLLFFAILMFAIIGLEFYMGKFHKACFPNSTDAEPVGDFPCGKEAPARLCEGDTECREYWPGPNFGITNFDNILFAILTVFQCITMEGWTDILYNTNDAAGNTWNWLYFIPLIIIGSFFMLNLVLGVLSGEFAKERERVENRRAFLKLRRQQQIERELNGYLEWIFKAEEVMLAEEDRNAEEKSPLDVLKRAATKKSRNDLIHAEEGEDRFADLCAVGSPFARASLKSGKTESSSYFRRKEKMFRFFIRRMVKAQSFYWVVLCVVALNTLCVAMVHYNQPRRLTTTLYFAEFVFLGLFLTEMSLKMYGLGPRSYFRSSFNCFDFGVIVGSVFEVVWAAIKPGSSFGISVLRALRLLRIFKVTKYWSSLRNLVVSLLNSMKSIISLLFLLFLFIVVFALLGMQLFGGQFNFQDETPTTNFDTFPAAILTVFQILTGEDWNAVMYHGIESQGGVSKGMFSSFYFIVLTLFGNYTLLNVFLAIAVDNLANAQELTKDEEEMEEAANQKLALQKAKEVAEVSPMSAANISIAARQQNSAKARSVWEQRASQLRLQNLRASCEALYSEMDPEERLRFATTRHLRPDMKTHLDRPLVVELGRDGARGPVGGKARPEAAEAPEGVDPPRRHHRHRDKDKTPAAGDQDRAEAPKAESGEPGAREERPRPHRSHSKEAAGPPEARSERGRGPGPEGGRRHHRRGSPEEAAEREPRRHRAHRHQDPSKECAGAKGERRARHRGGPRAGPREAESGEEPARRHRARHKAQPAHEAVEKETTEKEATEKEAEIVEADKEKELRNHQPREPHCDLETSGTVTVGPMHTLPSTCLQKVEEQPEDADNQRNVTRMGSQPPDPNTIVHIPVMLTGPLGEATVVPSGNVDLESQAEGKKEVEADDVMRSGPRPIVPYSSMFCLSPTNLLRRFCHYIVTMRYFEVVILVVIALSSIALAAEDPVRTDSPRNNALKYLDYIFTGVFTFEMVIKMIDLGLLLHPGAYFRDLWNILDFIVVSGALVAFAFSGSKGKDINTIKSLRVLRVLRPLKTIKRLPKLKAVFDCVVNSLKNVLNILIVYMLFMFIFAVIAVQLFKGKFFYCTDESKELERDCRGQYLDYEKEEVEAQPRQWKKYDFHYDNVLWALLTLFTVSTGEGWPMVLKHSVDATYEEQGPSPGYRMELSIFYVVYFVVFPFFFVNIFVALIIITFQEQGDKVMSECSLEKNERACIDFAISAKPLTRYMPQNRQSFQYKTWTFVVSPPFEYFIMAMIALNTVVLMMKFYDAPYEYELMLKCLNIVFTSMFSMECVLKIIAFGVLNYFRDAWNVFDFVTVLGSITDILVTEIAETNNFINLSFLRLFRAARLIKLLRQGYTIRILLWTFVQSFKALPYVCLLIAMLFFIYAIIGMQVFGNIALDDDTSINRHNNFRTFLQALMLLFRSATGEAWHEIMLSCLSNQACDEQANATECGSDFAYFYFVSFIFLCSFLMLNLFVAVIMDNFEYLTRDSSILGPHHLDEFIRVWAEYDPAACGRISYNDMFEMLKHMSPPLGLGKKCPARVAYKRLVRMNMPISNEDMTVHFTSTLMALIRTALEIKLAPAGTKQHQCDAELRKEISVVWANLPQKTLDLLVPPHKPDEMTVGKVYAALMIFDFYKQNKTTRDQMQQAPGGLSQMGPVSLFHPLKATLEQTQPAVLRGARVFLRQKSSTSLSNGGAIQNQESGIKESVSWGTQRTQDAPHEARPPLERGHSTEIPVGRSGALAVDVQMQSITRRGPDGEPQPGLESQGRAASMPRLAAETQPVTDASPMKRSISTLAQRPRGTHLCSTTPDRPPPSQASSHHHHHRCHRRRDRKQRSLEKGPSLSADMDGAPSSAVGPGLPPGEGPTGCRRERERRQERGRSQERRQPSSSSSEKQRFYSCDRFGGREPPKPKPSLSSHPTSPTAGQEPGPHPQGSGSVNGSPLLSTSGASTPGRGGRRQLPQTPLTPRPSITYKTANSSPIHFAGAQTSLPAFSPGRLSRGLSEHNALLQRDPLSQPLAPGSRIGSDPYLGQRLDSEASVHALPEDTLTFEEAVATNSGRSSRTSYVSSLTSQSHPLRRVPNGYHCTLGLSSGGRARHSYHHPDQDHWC
T1 sequence (P54290 25-944 partner limits assumed, other chains not shown): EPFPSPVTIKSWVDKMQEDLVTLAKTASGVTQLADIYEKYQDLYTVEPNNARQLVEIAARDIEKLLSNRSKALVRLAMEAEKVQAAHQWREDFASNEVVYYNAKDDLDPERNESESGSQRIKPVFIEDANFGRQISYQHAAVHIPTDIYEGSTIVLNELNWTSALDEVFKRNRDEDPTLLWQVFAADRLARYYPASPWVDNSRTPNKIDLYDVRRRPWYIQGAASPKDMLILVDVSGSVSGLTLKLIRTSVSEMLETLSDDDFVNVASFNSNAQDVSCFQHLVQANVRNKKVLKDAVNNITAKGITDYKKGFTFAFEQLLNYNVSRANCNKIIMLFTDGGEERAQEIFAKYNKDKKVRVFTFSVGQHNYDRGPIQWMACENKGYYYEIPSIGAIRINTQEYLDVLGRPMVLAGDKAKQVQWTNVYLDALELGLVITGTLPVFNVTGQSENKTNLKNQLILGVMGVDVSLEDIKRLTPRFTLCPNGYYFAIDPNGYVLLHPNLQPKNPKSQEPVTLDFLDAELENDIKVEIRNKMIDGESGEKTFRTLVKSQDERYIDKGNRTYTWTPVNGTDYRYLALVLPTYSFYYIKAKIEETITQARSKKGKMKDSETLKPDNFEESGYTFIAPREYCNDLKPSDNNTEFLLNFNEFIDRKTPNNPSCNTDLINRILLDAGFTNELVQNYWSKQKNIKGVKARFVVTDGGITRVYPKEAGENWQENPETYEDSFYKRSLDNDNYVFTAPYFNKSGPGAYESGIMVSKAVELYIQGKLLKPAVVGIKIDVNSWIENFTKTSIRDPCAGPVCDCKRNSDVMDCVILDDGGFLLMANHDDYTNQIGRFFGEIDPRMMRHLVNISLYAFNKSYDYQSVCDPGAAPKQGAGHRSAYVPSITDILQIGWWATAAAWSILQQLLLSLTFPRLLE
T1 sequence (P54290 945-1091 partner limits assumed, other chains not shown): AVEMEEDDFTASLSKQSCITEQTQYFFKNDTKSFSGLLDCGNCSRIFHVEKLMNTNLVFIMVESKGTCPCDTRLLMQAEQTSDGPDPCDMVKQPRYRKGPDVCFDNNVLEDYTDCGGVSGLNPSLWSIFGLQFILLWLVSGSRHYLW

Molecule | Effect on G/Q slope (Gmax-Qmax relation), with Gβγ | Effect on G/Q slope and currents, without Gβγ (peptide coexpressed with channels, absent Gβγ) | DF (prepulse facilitation) | Induction time of constitutive inhibition after receptor activation | Reversal of constitutive inhibition on removal of carbachol | Functional profile with m2R, absent carbachol (channels + m2R + NTB peptide, 0 min CCH) | G/Q slope with m2R and carbachol (channels + m2R + free NTB peptide, carbachol ≧30 min (50 μM CCH)) | Conversion to constitutively reluctant channels (deduced from DF˜4 via FIG. 7B model, free NTB with Gβγ) | DF (degree of prepulse facilitation) (free NTB with Gβγ)
NTC: NH3 terminus of L-type channel α1C subunit, free peptide [reference compound] | had no effect | had no effect | – | – | – | – | – | – | –
B1 | identical to those obtained with NTB-CFP | – | 2.64±0.18 | 10 to 15 min and ~10 min | did not reverse inhibition | indistinguishable from control N-type channels | marked suppression of the G/Q slope | ~75% | ~4
